Molecular target: native human CD4 on cells (SupT1 T cell line; human PBL/PBMC) (human) (UniProt P01730)
Experiment: ratio of BIAcore Ka on rCD4 to flow cytometry Ka on nCD4

- Ration of Ka (rCD4/nCD4): 6.1
Substance: chimeric Leu3a (antibody)
